Test results reported in patent US20230331827A1, “POTASSIUM CHANNEL INHIBITORS” (priority 2017, published 2023).
Positions count from the first letter of the chain named. In names and notes the source's numbering stands. Where two headings read alike, the source gives them in different places.

B1: KB_A12_Odk2 short: truncated OdK2 in VL CDR2 of KB_A12, IgG (antibody, V domains shown)
VH: EVQLVESGGGLVRPGGSLRLSCAASGFTFSSYAMSWVRQAPGKGLEWVSAISGSGGSTYYADSVKGRFTISRDNTKNSLYLQMTSLRADDTAFYYCVKDFGPGYGTGWFDYWGPGTLVTVSS
VL: QSVLTQPPSVSEAPRQRVTITCSGSSSNIGNNAVNWYQQLPGKAPKLLIYAAGRVKCRGSPQCIQPCKDAGMRFGKCMNGKCHCTPKANSGVSDRFSAAKSGTSASLAINGLRSEDEADYYCAAWDDSLNGYVFGTGTKLTVLG
B2: KB_A12_AnTx 2 M: AnTx N17A/F32T in VL CDR2 of KB_A12, IgG (antibody, V domains shown)
VH: B1 VH
VL: QSVLTQPPSVSEAPRQRVTITCSGSSSNIGNNAVNWYQQLPGKAPKLLIYAAGRQKECTGPQHCTNFCRKAKCTHGKCMNRKCKCTNCKANSGVSDRFSAAKSGTSASLAINGLRSEDEADYYCAAWDDSLNGYVFGTGTKLTVLG
B3: KB_A12_HsTx1 R14A (antibody, V domains shown)
VH: B1 VH
VL: QSVLTQPPSVSEAPRQRVTITCSGSSSNIGNNAVNWYQQLPGKAPKLLIYAAGRASCRTPKDCADPCAKETGCPYGKCMNRKCKCNRCANSGVSDRFSAAKSGTSASLAINGLRSEDEADYYCAAWDDSLNGYVFGTGTKLTVLG
B4: KB_A12_HsTx1 (antibody, V domains shown)
VH: B1 VH
VL: B3 VL with A68R
B5: KB_A12_Vm24: Vm24 in VL CDR2 of KB_A12, IgG (antibody, V domains shown)
VH: B1 VH
VL: QSVLTQPPSVSEAPRQRVTITCSGSSSNIGNNAVNWYQQLPGKAPKLLIYAAGRAAAISCVGSPECPPKCRAQGCKNGKCMNRKCKCYYCANSGVSDRFSAAKSGTSASLAINGLRSEDEADYYCAAWDDSLNGYVFGTGTKLTVLG
B6: KB_A12_Odk2: OdK2 in VL CDR2 of KB_A12, IgG (antibody, V domains shown)
VH: B1 VH
VL: QSVLTQPPSVSEAPRQRVTITCSGSSSNIGNNAVNWYQQLPGKAPKLLIYAAGRGVPTDVKCRGSPQCIQPCKDAGMRFGKCMNGKCHCTPKANSGVSDRFSAAKSGTSASLAINGLRSEDEADYYCAAWDDSLNGYVFGTGTKLTVLG
B7: KB_A12_ADWX1 short: truncated ADWX-1 in VL CDR2 of KB_A12, IgG (antibody, V domains shown)
VH: B1 VH
VL: B1 VL with R58K, G59H, P61R, I64L, Q65K, M78T

Assays:
human Kv1.3 (huKv1.3) = molecular target: T1, human Kv1.3 (huKv1.3) (Homo sapiens, UniProt P22001); experiment: QPatch automated patch-clamp, CHO cells stably expressing human Kv1.3 (Examples 19-21); type: cell-based
T1 construct: host or cells: CHO
T1 sequence (P22001 whole entry): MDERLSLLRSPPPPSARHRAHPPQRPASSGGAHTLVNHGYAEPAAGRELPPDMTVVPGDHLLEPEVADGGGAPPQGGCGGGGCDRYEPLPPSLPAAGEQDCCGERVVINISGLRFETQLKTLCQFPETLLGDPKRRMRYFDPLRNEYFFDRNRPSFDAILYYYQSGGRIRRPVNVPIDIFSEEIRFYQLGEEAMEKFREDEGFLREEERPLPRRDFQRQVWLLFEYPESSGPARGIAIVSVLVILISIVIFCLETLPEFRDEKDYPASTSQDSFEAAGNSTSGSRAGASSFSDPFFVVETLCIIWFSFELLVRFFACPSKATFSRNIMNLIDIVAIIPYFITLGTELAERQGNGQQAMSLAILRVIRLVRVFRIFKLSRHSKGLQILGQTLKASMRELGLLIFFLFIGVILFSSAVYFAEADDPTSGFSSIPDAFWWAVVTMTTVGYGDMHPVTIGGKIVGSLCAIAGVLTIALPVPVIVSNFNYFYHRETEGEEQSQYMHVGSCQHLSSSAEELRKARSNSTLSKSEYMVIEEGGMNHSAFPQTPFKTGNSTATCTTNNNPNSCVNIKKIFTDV
Method: The effect of these KnotBodies on cells expressing human Kv1.3 (huKv1.3) channel was assessed using the QPatch automated patch-clamp platform (Sophion, Ballerup, Denmark). For the testing of Kv1.3 ion channel currents, CHO cells stably expressing human Kv1.3 (GenBank accession number NM_002232.2; cell line catalogue number CT6133, Charles River Discovery, Cleveland, USA) were subjected to a QPatch electrophysiology assay in the presence or absence of the KnotBody fusions or the antibody isotypes (negative controls). Internal and external physiological solutions were freshly prepared prior to the assay. The extracellular solution contained 145 mM NaCl, 4 mM KC1, 2 mM CaC12, 1 mM MgC12, 10 mM HEPES and 10 mM glucose; the pH was adjusted to 7.4 with NaOH; the osmolarity was ~ 305 mOsm/L. The intracellular solution contained: KF (120 mM), KC1 (20 mM), HEPES (10 mM) EGTA (10 mM); the pH was adjusted to 7.2 with KOH; osmolarity was ~ 300 mOsm/L.
(§1) A series of depolarising voltage (channel activating) pulses were used to monitor the channel currents upon adding control (extracellular solution) to define a control baseline of current activity. To these measured control currents four, ascending concentrations of KnotBodies (including KB_A12_ShK and KB_A12_KTX as previously described in Example 8) or parental antibody isotypes (control molecules) were applied to the external bathing solution. KnotBodies KB_A12 and KB_A07 (EETI-II fusions) were used as isotype controls for the testing. From a holding voltage of -80 mV a depolarising, activating voltage pulses of +30 mV were applied for 300 ms, every 10 seconds. The elicited, maximum outward current values measured during the activating step for each solution exchange period, averaged (n = 3 - 6 for each concentration applied) and plotted as concentration-response curves (see FIG. 32). From these concentration-response curves IC50 values were calculated.
(§2) For the testing of Kv1.1 and Kv1.3, CHO-S expressing huKv1.1 (described above) or CHO cells stably expressing huKv1.3 (Charles River Lab) were analysed using the QPatch electrophysiology assay in the presence or absence of the KnotBody fusions. Internal and external physiological solutions were freshly prepared prior to the assay. The extracellular solution contained 145 mM NaCl, 4 mM KC1, 2 mM CaC12, 1 mM MgC12, 10 mM HEPES and 10 mM glucose; the pH was adjusted to 7.4 with NaOH; the osmolarity was ~ 305 mOsm/L. The intracellular solution contained: KF (120 mM), KC1 (20 mM), HEPES (10 mM) EGTA (10 mM); the pH was adjusted to 7.2 with KOH; osmolarity was ~ 300 mOsm/L.
as §1, with “(including previously described” for “(including”, “KB_A12_KTX” for “KB_A12_KTX as previously”, “[…]” for “+30 mV”, “33).” for “32).”, “calculated (see Table E20).” for “calculated.”
(§3) For the testing of Kv1.1 and Kv1.3, CHO-S expressing huKv1.1 (see Example 20 and below) or CHO cells stably expressing huKv1.3 (Charles River Lab) were analysed using the QPatch electrophysiology assay in the presence or absence of the KnotBody fusions - see details in Examples 19 and 20.

human Kv1.1 (huKv1.1) = molecular target: T2, human Kv1.1 (huKv1.1) (Homo sapiens, UniProt Q09470); experiment: QPatch automated patch-clamp, CHO-S cells expressing huKv1.1 (Examples 20-21); type: cell-based
T2 construct: expressed in transfected cells; host or cells: Freestyle CHO-S
T2 sequence (Q09470 whole entry): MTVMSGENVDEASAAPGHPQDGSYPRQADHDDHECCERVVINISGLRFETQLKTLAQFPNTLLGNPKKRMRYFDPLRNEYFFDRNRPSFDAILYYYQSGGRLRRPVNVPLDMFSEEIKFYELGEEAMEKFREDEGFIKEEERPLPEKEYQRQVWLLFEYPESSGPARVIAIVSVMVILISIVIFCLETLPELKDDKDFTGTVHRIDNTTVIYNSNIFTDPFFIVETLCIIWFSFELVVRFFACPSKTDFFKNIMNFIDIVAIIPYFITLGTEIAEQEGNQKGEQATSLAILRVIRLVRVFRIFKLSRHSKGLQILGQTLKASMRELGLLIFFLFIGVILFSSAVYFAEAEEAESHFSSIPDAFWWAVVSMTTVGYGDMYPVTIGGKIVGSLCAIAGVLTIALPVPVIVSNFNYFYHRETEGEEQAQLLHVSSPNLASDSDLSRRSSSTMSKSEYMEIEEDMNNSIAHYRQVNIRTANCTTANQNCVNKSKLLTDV
Method: 1. The effect of these KnotBodies on cells expressing human Kv1.1 (huKv1.1) and Kv1.3 (huKv1.3) channels was assessed using QPatch automated patch-clamp platform (Sophion).
To generate huKv1.1 expressing cells, Freestyle CHO-S cells (Cat. no. R80007, Life Technologies, California, USA) were transfected with pINT50-Tr plasmid encoding huKv1.1 gene using the MaxCyte STX (MaxCyte) transfection system. In pINT50-Tr plasmid, huKv1.1 gene is under the control of a CMV promoter. 64 µg of the plasmid DNA were added to 400 µl of Freestyle CHO-S cells (at a density of 1 × 10^8 cells/ml) in Electroporation Buffer (GE Healthcare Life Sciences, Cat. no. EPB1) in an OC-400 processing assembly (MaxCyte). Following electroporation, the cells were transferred to a well of a 24-well plate containing 200 U/ml DNAse I (Sigma, D4263) and incubated for 20 minutes at 37° C. and 5% CO2. The cells were then transferred into a 100 ml shaker flask containing 20 ml of CD Opticho Media (Thermo Fisher Scientific, Cat.No 12681-011,) supplemented with 8 mM L-Glut (Thermo Fisher Scientific, cat. no. 25030-024). The cells were incubated for 24 hours at 37° C. and 5% CO2 (and 75% humidity and shaking at 800 rpm) prior to testing using automated patch clamp electrophysiology.
as §2
as §1, with “(including previously described” for “(including”, “KB_A12_KTX” for “KB_A12_KTX as previously”, “[…]” for “+30 mV”, “33).” for “32).”, “calculated (see Table E20).” for “calculated.”
as §3
In addition to the CHO-S transiently expressing huKv1.1 (described in Example 20), CHO-S cells with poly-clonal stable expression of huKv1.1 cells were also made and used in the QPatch electrophysiology assay. To generate the polyclonal stable huKv1.1 cells from the transiently expressing cells described in Example 20, after a 24 hour incubation period the selection antibiotic Puromycin (catalogue no. A1 1138-03, Life Technologies, California, USA) was added to culture media. Then, for the first 14 days puromycin was at 10 µg ml-1 media; at days 15-28 puromycin was at 20 µg ml-1 media. Cell cultures were seeded at 2.5 x 10^5 cells ml^-1 into fresh culture media and puromycin twice per week through this selection growth period. […]

[1] = Kv1.1 IC50 over Kv1.3 IC50, Table E20
[2] = four-point curves of FIG. 33, Table E20, read-out: Kv1.3 IC50
[3] = huKv1.3, four-point curves of FIG. 32, Table E19, read-out: IC50
[4] = four-point curves of FIG. 33, Table E20

Molecule	Fold difference (human Kv1.3 (huKv1.3); [1])	IC50 (human Kv1.3 (huKv1.3); [2]) [nM]	IC50 (human Kv1.3 (huKv1.3); [3]) [nM]	IC50 (human Kv1.1 (huKv1.1); [4]) [nM]	Fold difference (human Kv1.3 (huKv1.3); Kv1.1 IC50 over Kv1.3 IC50, Table E21)	IC50 (human Kv1.3 (huKv1.3); Table E21, read-out: Kvl.3 IC50) [nM]	IC50 (human Kv1.1 (huKv1.1); Table E21) [nM]
B1	8	49	64	380			
B2	94	110	85	10300			
B3					>3500	0.9	2990
B4	43	15	3.9	650			
B5	102	12	16	1220			
B6	6	457	222	2750			
B7	6	251	170	1400			
